Our source for the abundance fitness values is the Human Domainome abundance scans (Beltran et al. 2025).

± gives the uncertainty stated by the source.

B1: Tumor protein p73, residues 487 to 549; numbered along this chain, O15350 (parent)
chain: YHADPSLVSFLTGLGCPNCIEYFTSQGLQSIYHLQNLTIEDLGALKIPEQYRMTIWRGLQDLK

This data set covers variants of B1. In words: abundance fitness (aPCA) (normalised: wild type 0, dead -1); higher = more abundant; growth selection in yeast, the domain comes from the species named. The conditions noted are these: Homo sapiens.
As to YHADPSLVSFLTGLGCPNCIEYFTSQGLQSIYDLQNLTIEDLGALKIPEQYRMTIWRGLQDLK [H33D], the abundance fitness was -0.017 ± 0.1. Under YHADPSLVSFLTGLGCPNCIEYFTSQGLQSIYGLQNLTIEDLGALKIPEQYRMTIWRGLQDLK [H33G] stands -0.038 ± 0.033; under YHADPSLVSFLTGLGCPNCIEYFTSQGLQSIYWLQNLTIEDLGALKIPEQYRMTIWRGLQDLK [H33W], -0.566 ± 0.07. With YHADPSLVSFLTGLGCPNCIEYFTSQGLQSIYRLQNLTIEDLGALKIPEQYRMTIWRGLQDLK [H33R] the figure was -0.055 ± 0.031; with YHADPSLVSFLTGLGCPNCIEYFTSQGLQSIYVLQNLTIEDLGALKIPEQYRMTIWRGLQDLK [H33V], -0.059 ± 0.034; with YHADPSLVSFLTGLGCPNCIEYFTSQGLQSIYNLQNLTIEDLGALKIPEQYRMTIWRGLQDLK [H33N], -0.027 ± 0.086. Under YHADPSLVSFLTGLGCPNCIEYFTSQGLQSIYPLQNLTIEDLGALKIPEQYRMTIWRGLQDLK [H33P] stands -0.127 ± 0.037; under YHADPSLVSFLTGLGCPNCIEYFTSQGLQSIYLLQNLTIEDLGALKIPEQYRMTIWRGLQDLK [H33L], -0.142 ± 0.037; under YHADPSLVSFLTGLGCPNCIEYFTSQGLQSIYKLQNLTIEDLGALKIPEQYRMTIWRGLQDLK [H33K], 0.112 ± 0.041.

For the variant YHADPSLVSFLTGLGCPNCIEYFTSQGLQSIYCLQNLTIEDLGALKIPEQYRMTIWRGLQDLK [H33C], the abundance fitness is -0.051 ± 0.061. With YHADPSLVSFLTGLGCPNCIEYFTSQGLQSIYALQNLTIEDLGALKIPEQYRMTIWRGLQDLK [H33A] the figure was -0.014 ± 0.035; with YHADPSLVSFLTGLGCPNCIEYFTSQGLQSIYYLQNLTIEDLGALKIPEQYRMTIWRGLQDLK [H33Y], -0.112 ± 0.058.

Turning to YHADPSLVSFLTGLGCPNCIEYFTSQGLQSIYILQNLTIEDLGALKIPEQYRMTIWRGLQDLK [H33I], the abundance fitness is -0.216 ± 0.072. Under YHADPSLVSFLTGLGCPNCIEYFTSQGLQSIYFLQNLTIEDLGALKIPEQYRMTIWRGLQDLK [H33F] stands -0.344 ± 0.099; under YHADPSLVSFLTGLGCPNCIEYFTSQGLQSIYQLQNLTIEDLGALKIPEQYRMTIWRGLQDLK [H33Q], 0.069 ± 0.043; under YHADPSLVSFLTGLGCPNCIEYFTSQGLQSIYHLNNLTIEDLGALKIPEQYRMTIWRGLQDLK [Q35N], 0.192 ± 0.071. YHADPSLVSFLTGLGCPNCIEYFTSQGLQSIYHLDNLTIEDLGALKIPEQYRMTIWRGLQDLK [Q35D]: the abundance fitness was 0.073 ± 0.08. With YHADPSLVSFLTGLGCPNCIEYFTSQGLQSIYHLKNLTIEDLGALKIPEQYRMTIWRGLQDLK [Q35K] the figure was 0.078 ± 0.057; with YHADPSLVSFLTGLGCPNCIEYFTSQGLQSIYHLENLTIEDLGALKIPEQYRMTIWRGLQDLK [Q35E], 0.005 ± 0.066. Under YHADPSLVSFLTGLGCPNCIEYFTSQGLQSIYHLVNLTIEDLGALKIPEQYRMTIWRGLQDLK [Q35V] stands 0.055 ± 0.046; under YHADPSLVSFLTGLGCPNCIEYFTSQGLQSIYHLHNLTIEDLGALKIPEQYRMTIWRGLQDLK [Q35H], 0.026 ± 0.055; under YHADPSLVSFLTGLGCPNCIEYFTSQGLQSIYHLYNLTIEDLGALKIPEQYRMTIWRGLQDLK [Q35Y], 0.031 ± 0.057. Under YHADPSLVSFLTGLGCPNCIEYFTSQGLQSIYHLPNLTIEDLGALKIPEQYRMTIWRGLQDLK [Q35P] stands -0.184 ± 0.073; under YHADPSLVSFLTGLGCPNCIEYFTSQGLQSIYHLCNLTIEDLGALKIPEQYRMTIWRGLQDLK [Q35C], -0.07 ± 0.083; under YHADPSLVSFLTGLGCPNCIEYFTSQGLQSIYHLWNLTIEDLGALKIPEQYRMTIWRGLQDLK [Q35W], -0.245 ± 0.041. For YHADPSLVSFLTGLGCPNCIEYFTSQGLQSIYHLTNLTIEDLGALKIPEQYRMTIWRGLQDLK [Q35T], the abundance fitness was -0.084 ± 0.042. With YHADPSLVSFLTGLGCPNCIEYFTSQGLQSIYHLSNLTIEDLGALKIPEQYRMTIWRGLQDLK [Q35S] the figure was 0.071 ± 0.043; with YHADPSLVSFLTGLGCPNCIEYFTSQGLQSIYHLFNLTIEDLGALKIPEQYRMTIWRGLQDLK [Q35F], -0.142 ± 0.085; with YHADPSLVSFLTGLGCPNCIEYFTSQGLQSIYHLMNLTIEDLGALKIPEQYRMTIWRGLQDLK [Q35M], -0.058 ± 0.051. Take YHADPSLVSFLTGLGCPNCIEYFTSQGLQSIYHLANLTIEDLGALKIPEQYRMTIWRGLQDLK [Q35A]: the abundance fitness was -0.019 ± 0.042. With YHADPSLVSFLTGLGCPNCIEYFTSQGLQSIYHNQNLTIEDLGALKIPEQYRMTIWRGLQDLK [L34N] the figure was -0.536 ± 0.13. Under YHADPSLVSFLTGLGCPNCIEYFTSQGLQSIYHVQNLTIEDLGALKIPEQYRMTIWRGLQDLK [L34V] stands 0.038 ± 0.028. With YHADPSLVSFLTGLGCPNCIEYFTSQGLQSIYHCQNLTIEDLGALKIPEQYRMTIWRGLQDLK [L34C] the figure was -0.049 ± 0.068. Consider YHADPSLVSFLTGLGCPNCIEYFTSQGLQSIYHEQNLTIEDLGALKIPEQYRMTIWRGLQDLK [L34E], for which the abundance fitness was -0.638 ± 0.062. Under YHADPSLVSFLTGLGCPNCIEYFTSQGLQSIYHMQNLTIEDLGALKIPEQYRMTIWRGLQDLK [L34M] stands 0.021 ± 0.051; under YHADPSLVSFLTGLGCPNCIEYFTSQGLQSIYHAQNLTIEDLGALKIPEQYRMTIWRGLQDLK [L34A], 0.048 ± 0.039. Under YHADPSLVSFLTGLGCPNCIEYFTSQGLQSIYHYQNLTIEDLGALKIPEQYRMTIWRGLQDLK [L34Y] stands -0.285 ± 0.14; under YHADPSLVSFLTGLGCPNCIEYFTSQGLQSIYHTQNLTIEDLGALKIPEQYRMTIWRGLQDLK [L34T], 0.018 ± 0.045; under YHADPSLVSFLTGLGCPNCIEYFTSQGLQSIYHRQNLTIEDLGALKIPEQYRMTIWRGLQDLK [L34R], -0.867 ± 0.077. Under YHADPSLVSFLTGLGCPNCIEYFTSQGLQSIYHDQNLTIEDLGALKIPEQYRMTIWRGLQDLK [L34D] stands -0.835 ± 0.12. YHADPSLVSFLTGLGCPNCIEYFTSQGLQSIYHQQNLTIEDLGALKIPEQYRMTIWRGLQDLK [L34Q]: the abundance fitness is -0.529 ± 0.073.

Take YHADPSLVSFLTGLGCPNCIEYFTSQGLQSIYHSQNLTIEDLGALKIPEQYRMTIWRGLQDLK [L34S]: the abundance fitness is -0.319 ± 0.045. Take YHADPSLVSFLTGLGCPNCIEYFTSQGLQSIYHPQNLTIEDLGALKIPEQYRMTIWRGLQDLK [L34P]: the abundance fitness was -0.671 ± 0.12.
